Measurements from patent publication US20240025965A1 (UNIVERSITEIT TWENTE, published 2024).
Primed or numbered codes have the meaning given here. Where no end group is shown, it is not given here. Side-chain parts run from the residue outwards. PEG(6) = PEG(6) linker

Key:
[1] = molecular target: T1, human recombinant receptor αvβ3 (human, UniProt P06756 31-992; P05106 27-718, limits assumed); assay: microscale thermophoresis, 1 µM labelled peptide, receptor titrated, in solution
T1 construct: also called irrelevant receptor of the integrin family
Protocol: (§1) Fluorescent labeled peptide (AV3-PEG(6)-5FAM or AXI-I-PEG(6)-FITC) (1 μM) was incubated with different concentrations of a human recombinant receptor (i.e., α5β1, α11β1 or αvβ3) for 10 minutes in Eppendorf tubes. The mixture of peptide and receptor was loaded in to NT.115™ hydrophilic glass capillaries. In order to find the best thermophoretic setting, the binding of peptide to the target receptor was examined at low (20%), middle (40%), and high (80%) MST power and all other binding experiments were performed using the same MST-settings. Finally, the dissociation constant (Kd) value was calculated from an average of three experiments.
(§2) Fluorescent labeled peptides (AV3-PEG(6)-5FAM and AXI-I-PEG(6)-FITC) were examined for their binding affinities against α5β1 and α11β1 receptors, respectively using microscale thermophoresis (MST). MST allows peptides to interact with the receptors in solution phase. These peptides were also exposed to an irrelevant receptor of the integrin family αvβ3 and MST analyses were performed.

[2] = molecular target: T2, α5β1 human recombinant protein (human, UniProt P08648 42-995; P05556 21-728); assay: as above
T2 construct: Bought from R&D Systems; also called α5β1 receptor; integrin α5β1
Protocol: as §1, §2

[3] = molecular target: T2, α5β1 human recombinant protein; assay: microscale thermophoresis, 1 µM labelled peptide with rising concentrations of the receptor in solution
Protocol: as §1, §2

[4] = molecular target: T1, human recombinant receptor αvβ3; assay: microscale thermophoresis, 1 µM labelled peptide
Protocol: as §1, §2

[5] = molecular target: T2, α5β1 human recombinant protein; assay: FITC-labelled peptide on coated α5β1 receptor in a 96-well plate, fluorescence intensity
Protocol: (§3) Purified ITGA11 receptor (α11β1; 100 μg/ml—stock; R&D systems) was diluted to 5 μg/ml with 1×PBS. 96-well ELISA White Maxisorb plate (Nunc) was coated with 50 μl of 5 μg/ml ITGA11 (or as control α5β1) receptor for overnight at 4° C. Then, wells were blocked for 3-4 hours with 200 μl of blocking buffer (1×PBS containing 5% BSA). Wells were washed three times with 200 μl of washing buffer (1×PBS containing 0.5% BSA and 0.05% TWEEN®-20). Peptides conjugated with FITC were diluted to different concentrations in washing buffer and then added to the plate and incubated at 37° C. for 1 hour. In addition, the binding of the peptide was blocked by co-incubation with 10× higher amount of unlabeled peptide. Subsequently, wells were washed three times with washing buffer. Then, 100 μl of 1×PBS was added and plates were read at 485 nm/520 nm with a fluorescence plate reader.

rhIntegrin α11β1 [6] = molecular target: T3, rhIntegrin α11β1 (human, UniProt Q9UKX5 23-1141; P05556 21-728, limits assumed); assay: microscale thermophoresis, 1 µM labelled peptide, receptor titrated, in solution
T3 construct: Bought from R&D Systems; also called α11β1 receptor; ITGA11 receptor
Protocol: as §1, §2

[7] = molecular target: T4, ITGA11 on human stellate cells (LX2 hepatic stellate cells; primary pancreatic stellate cells) (human, UniProt Q9UKX5 23-1188); assay: flow cytometry on suspended primary human pancreatic stellate cells, 1 hour at 4° C.; whole-cell binding on suspended primary human pancreatic stellate cells, 1 hour at 4° C., flow cytometry; PEG- and FITC-modified peptide
T4 construct: whole, on cells; For the pancreatic stellate cells the target is only implied; also called ITGA11-expressing hepatic stellate cells; ITGA11 expressing LX2 cells
T4 sequence (looked up): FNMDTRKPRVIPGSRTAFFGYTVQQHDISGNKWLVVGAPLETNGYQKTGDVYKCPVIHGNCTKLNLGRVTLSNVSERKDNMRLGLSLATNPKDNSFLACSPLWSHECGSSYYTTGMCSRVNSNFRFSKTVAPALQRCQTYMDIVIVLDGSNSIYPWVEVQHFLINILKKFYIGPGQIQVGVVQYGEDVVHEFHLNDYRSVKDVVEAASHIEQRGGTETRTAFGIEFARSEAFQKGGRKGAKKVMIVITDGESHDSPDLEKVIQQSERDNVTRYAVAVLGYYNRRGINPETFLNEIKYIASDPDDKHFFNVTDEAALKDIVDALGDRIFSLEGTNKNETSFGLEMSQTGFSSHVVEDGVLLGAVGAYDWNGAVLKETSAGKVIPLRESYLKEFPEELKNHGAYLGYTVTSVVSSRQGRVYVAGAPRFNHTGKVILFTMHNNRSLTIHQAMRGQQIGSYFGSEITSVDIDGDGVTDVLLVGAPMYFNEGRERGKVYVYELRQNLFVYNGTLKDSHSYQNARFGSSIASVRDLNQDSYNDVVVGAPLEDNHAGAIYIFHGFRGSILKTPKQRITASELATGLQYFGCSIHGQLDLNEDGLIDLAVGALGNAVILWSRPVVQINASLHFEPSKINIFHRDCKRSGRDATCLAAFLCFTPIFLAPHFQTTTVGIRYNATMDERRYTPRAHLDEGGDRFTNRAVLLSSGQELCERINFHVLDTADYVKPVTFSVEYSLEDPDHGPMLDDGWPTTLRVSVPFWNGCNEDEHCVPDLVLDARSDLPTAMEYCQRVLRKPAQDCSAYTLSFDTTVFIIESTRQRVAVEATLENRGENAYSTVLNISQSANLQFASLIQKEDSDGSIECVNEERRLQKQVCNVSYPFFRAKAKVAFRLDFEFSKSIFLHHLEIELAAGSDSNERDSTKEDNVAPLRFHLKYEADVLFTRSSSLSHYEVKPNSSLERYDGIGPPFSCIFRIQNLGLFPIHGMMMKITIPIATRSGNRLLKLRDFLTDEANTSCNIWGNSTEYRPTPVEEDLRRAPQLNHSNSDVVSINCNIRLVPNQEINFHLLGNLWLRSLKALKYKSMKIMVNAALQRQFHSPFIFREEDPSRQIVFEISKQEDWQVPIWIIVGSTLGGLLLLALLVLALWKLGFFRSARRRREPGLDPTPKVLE
Protocol: (§4) PSCs were trypsinized using trypsin-EDTA solution and cell numbers were diluted to 4×10⁴ cells/ml. Cells were incubated at 37° C. for 30 minutes to allow receptor recovery. Then different concentrations of AXI-I-FITC was added to the cells containing 2% FBS and incubated at 4° C. for 60 minutes. Thereafter, cells were centrifuged at 1500 rpm at 4° C. for 10 minutes. Supernatant was removed and cells were washed 3 times with PBS and then were fixed with 0.5% formaldehyde for 1 hour at 4° C. and measured with flow cytometry for fluorescence.
(§5) Different concentrations of AXI-I-PEG-FITC was incubated with suspended PSCs for 1 hour at 4° C., washed and fixed with 0.5% formaldehyde and measured with flow cytometry. […] The 50% of the total binding, i.e., dissociation constant (kd) value was approximately 1 uM. Since the peptide has been modified with PEG chain and a fluorophore, the binding affinity of the peptide may be reduced due to steric hindrance.

[8] = molecular target: T4, ITGA11 on human stellate cells (LX2 …); assay: flow cytometry of AXI-I-PEG-FITC on suspended primary human pancreatic stellate cells, 1 hour at 4 °C
Protocol: as §4, §5

[9] = molecular target: T2, α5β1 human recombinant protein; assay: FITC-labelled peptide on coated α5β1 receptor in a 96-well plate, fluorescence intensity (counts)
Protocol: (§6) The purified human recombinant α5β1 or α11β1 receptors (5 μg/ml in PBS) were coated onto 96-well ELISA plates (White Maxisorb-Nunc) by incubating overnight at 4° C. Then, the wells were blocked with blocking buffer (5% (w/v) BSA, 150 mM Nacl, 25 mM Tris) for 2 hours at room temperature. Then, the wells were washed three times with 200 μl of washing buffer (150 mM Nacl, 25 mM Tris-base, 0.005% TWEEN® 20, 0.5% BSA). Thereafter, the peptides conjugated with PEG(6)-FITC were diluted to different concentrations in washing buffer. For the competitive studies, the wells were co-incubated with 10-fold higher amount of unlabeled peptides. The plates were incubated at 37° C. for 60 minutes. Then, the wells were washed three times with washing buffer and subsequently, the plates were read for the fluorescein signal Ex/Em 485 nm/520 nm using a fluorescent plate reader (Perkin Elmer).
(§7) Blocking of the peptide with 10-fold excess of unlabeled peptide blocked the binding of nAV2-PEG(6)-fluorescein. In addition, a new short peptide (RYYRITY (SEQ ID NO:8), called AV3) was also designed because seq. 3 and seq. 4 (see the sequences above) had “YYRITY” (SEQ ID NO:10) as common amino acids and the N-terminal of the seq. 4 was crucial for the binding to the receptor. […] Therefore, AV3 was selected to move with further studies.

rhIntegrin α11β1 [10] = molecular target: T3, rhIntegrin α11β1; assay: competition: unlabeled AXI-I in 10-fold excess against AXI-I-FITC on coated α11β1 receptor, fluorescence intensity
Protocol: as §3

rhIntegrin α11β1 [11] = molecular target: T3, rhIntegrin α11β1; assay: phage ELISA on coated rhIntegrin α11β1, HRP-anti-M13 antibody, read at 490 nm; control coatings rhIntegrin α4β1 (Bar 2) and no coating (Bar 3); one phage dose, no concentration given
Protocol: For each clone, 20 mL of LB medium was inoculated with ER2738 and incubated at 37° C. until slightly turbid. Single plaque of phages were inoculated to each culture and then incubated at 37° C. with vigorous aeration for 4.5 hours. The cultures were transferred to a fresh centrifuge tube and centrifuged for 10 minutes at 10,000 rpm. The upper 80% of the supernatant was transferred to a fresh tube and precipitated with PEG/NaCl twice. Then the pellet was suspended in 250 μL TBS. The 96-well ELISA plate was coated with 100 μL of 1 μg/mL target in coating buffer and incubated at 4° C. overnight. Then, the plate was washed once with the washing buffer (0.1% TWEEN® in TBS). All wells were blocked with 250 μL of blocking buffer at 4° C. for 1-2 hours. Then, the plate was washed 6 times with the washing buffer and slapping on a paper towel to remove excess buffer. Thereafter, 100 μL of phage virions was added per well. In competitive phage ELISA, competitive antigen was mixed with phages in washing buffer and added to the wells and incubated at room temperature for 1-2 hours with agitation. The plate was washed 6 times with washing buffer. HRP-conjugated anti-M13 antibody (GE healthcare, 1:5000 in blocking buffer) was added to each well and incubated at room temperature for 1 hour with agitation. […] The plates were read using a microplate reader at 490 nm.

[12] = molecular target: T2, α5β1 human recombinant protein; assay: competition: unlabelled AV3 in excess against nAV2-FITC on coated α5β1 receptor, fluorescence intensity (counts)
Protocol: as §6, §7

T2 sequence (P08648 42-995 limits assumed, chain 1 of 2): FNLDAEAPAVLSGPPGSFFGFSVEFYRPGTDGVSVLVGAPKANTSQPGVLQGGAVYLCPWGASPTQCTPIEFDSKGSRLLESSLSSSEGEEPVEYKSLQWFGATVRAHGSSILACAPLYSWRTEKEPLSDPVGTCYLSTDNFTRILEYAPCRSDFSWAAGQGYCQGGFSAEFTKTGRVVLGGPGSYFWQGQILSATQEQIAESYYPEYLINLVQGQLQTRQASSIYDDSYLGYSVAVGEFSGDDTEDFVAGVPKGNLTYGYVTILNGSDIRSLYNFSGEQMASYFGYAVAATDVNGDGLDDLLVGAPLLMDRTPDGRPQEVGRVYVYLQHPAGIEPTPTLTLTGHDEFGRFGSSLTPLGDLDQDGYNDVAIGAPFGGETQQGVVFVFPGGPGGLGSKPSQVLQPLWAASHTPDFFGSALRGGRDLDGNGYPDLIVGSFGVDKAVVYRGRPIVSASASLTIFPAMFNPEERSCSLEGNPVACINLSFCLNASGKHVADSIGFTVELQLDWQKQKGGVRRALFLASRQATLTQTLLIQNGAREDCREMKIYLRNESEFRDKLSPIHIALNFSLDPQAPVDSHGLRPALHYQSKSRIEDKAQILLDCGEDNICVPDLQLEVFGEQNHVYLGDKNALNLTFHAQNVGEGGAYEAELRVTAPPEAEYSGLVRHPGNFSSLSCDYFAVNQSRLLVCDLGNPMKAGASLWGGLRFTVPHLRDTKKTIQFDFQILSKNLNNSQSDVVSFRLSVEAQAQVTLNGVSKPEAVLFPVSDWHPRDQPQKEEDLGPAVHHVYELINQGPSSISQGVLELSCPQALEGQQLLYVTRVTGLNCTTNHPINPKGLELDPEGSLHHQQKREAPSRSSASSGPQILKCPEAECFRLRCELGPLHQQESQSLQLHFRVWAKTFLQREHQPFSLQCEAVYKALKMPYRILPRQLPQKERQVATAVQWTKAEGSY
T2 sequence (P05556 21-728 limits assumed, chain 2 of 2): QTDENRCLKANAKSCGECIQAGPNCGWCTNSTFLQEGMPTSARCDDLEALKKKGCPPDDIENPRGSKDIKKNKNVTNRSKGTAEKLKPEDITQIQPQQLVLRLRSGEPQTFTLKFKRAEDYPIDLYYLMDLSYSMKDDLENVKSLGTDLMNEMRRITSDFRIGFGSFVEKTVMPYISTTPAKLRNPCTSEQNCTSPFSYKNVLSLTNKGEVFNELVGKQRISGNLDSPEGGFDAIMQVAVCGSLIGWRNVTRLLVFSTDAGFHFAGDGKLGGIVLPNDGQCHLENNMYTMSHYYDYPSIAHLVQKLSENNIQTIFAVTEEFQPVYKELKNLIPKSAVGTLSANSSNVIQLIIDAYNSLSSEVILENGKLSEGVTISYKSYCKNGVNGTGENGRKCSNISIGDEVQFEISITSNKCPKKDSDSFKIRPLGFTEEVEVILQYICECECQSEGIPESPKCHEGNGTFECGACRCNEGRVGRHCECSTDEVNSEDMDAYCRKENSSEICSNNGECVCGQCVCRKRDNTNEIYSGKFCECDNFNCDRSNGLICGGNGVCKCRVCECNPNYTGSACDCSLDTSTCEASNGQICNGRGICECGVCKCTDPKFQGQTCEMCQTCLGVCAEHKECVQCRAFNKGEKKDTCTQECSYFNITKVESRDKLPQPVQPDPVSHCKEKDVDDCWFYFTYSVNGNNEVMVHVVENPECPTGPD
T1 sequence (P06756 31-992 limits assumed, chain 1 of 2): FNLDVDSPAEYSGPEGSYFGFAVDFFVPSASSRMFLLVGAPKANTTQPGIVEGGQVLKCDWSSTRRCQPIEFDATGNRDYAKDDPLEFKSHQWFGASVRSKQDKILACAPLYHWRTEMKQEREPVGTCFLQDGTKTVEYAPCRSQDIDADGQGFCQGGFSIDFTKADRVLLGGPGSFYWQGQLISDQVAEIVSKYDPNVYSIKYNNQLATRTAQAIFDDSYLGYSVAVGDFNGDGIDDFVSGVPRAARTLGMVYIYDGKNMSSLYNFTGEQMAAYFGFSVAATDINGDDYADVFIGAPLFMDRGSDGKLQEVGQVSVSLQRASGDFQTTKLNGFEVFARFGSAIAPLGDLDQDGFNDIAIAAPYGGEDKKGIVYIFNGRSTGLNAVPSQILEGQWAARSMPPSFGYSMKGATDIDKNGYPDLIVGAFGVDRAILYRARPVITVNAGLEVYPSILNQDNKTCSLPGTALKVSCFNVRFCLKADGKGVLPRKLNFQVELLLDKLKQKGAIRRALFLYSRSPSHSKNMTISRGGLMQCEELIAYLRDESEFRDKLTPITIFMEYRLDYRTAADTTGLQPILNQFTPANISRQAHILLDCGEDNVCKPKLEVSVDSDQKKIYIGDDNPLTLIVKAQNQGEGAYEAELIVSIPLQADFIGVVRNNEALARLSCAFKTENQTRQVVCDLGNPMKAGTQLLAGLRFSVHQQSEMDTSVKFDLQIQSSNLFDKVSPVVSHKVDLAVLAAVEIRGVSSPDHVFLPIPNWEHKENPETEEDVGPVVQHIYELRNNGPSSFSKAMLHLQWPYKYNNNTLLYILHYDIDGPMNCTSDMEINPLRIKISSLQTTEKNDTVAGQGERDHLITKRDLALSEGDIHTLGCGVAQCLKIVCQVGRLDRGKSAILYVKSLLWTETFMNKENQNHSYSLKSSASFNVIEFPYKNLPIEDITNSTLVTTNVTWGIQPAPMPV
T1 sequence (P05106 27-718 limits assumed, chain 2 of 2): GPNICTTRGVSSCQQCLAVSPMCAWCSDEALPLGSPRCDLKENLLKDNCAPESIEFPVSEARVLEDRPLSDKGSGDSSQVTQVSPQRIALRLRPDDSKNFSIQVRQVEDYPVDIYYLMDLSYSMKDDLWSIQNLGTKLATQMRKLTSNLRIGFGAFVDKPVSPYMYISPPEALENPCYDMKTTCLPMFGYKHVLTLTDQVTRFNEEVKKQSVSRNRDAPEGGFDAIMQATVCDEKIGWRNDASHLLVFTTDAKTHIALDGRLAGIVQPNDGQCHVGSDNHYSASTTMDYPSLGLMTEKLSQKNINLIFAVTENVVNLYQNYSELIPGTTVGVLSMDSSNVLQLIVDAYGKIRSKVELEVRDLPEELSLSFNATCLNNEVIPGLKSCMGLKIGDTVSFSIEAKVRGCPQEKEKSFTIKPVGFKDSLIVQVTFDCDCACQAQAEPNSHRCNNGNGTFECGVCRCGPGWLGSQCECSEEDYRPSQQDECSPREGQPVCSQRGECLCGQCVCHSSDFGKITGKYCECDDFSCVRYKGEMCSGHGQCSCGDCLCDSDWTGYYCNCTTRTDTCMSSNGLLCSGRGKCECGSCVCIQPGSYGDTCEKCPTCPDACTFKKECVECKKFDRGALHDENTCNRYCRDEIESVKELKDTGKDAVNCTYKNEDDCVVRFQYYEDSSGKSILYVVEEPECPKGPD

B1: AV3-PEG(6)-5FAM (peptide)
peptide: RYYRITY
modifications: also: PEG(6)-5FAM conjugated, site not given here
notes: also called AV3 peptide (fluorescent labeled)
How did the Kd [1] turn out when B1 was run?
The Kd was 36100 nM.

What about the Kd [2] of the same binder?
Its Kd is 97.8 nM.

And the “EC50 (read off the curve)” value [3]?
Its value is roughly 100 nM.

Does SGLTEWLRWFNS (also: PEG(6)-FITC conjugated, site not given here, also called AXI-I-PEG-FITC; AXI-I-FITC) [AXI-I-PEG(6)-FITC] bind [4]?
Result: no binding

Does SGLTEWLRWFNS (also: PEG(6)-FITC conjugated, site not given here, also called AXI-I-PEG-FITC; AXI-I-FITC) [AXI-I-PEG(6)-FITC] bind [5]?
Result: no binding (tested: 1.0 µM)

And the Kd (rhIntegrin α11β1 [6])?
Its Kd is 149 nM.

And the Kd [7]?
Its Kd is roughly 1000 nM.

And the “EC50 (read off the curve)” value [8]?
Its value is roughly 1000 nM.

B2: FITC-labeled nAV2: YYRITYGETGGN-K-PEG(6)-Fluorescein (peptide)
peptide: YYRITYGETGGNK([PEG(6)-fluorescein])
notes: also called nAV2-FITC; nAV2-PEG(6)-fluorescein
Does B2 bind [9]?
Result: binds

B3: AXI-I peptide SGLTEWLRWFNS (peptide)
peptide: SGLTEWLRWFNS
notes: Unlabelled peptide; On the peptide microarray it is linked by its N-terminus to a glass slide through a PEG linker; also called unlabeled AXI-I
Does B3 bind (rhIntegrin α11β1 [10])?
Result: binds

B4: Phage clones 11, 13, 14, 16, 19, 20, 21, 22, 24, 25, 28, 29, 30, 31 and 38 displaying AXI-I (peptide)
chain: SGLTEWLRWFNS
notes: Whole phage virions in the phage ELISA; not shown: phage coat protein of the Ph.D.12 library
Does B4 bind (rhIntegrin α11β1 [11])?
Result: binds

B5: Phage clone 27 displaying AXI-II (peptide)
chain: SFATWTPNFERN
notes: as for B4
Does B5 bind (rhIntegrin α11β1 [11])?
Result: binds

B6: AV3 peptide RYYRITY (peptide)
peptide: RYYRITY
notes: Unlabelled; On the peptide microarray it is linked by its N-terminus to a glass slide through a PEG linker
Does B6 bind [12]?
Result: binds
